What was measured:
[1] = target: rat CNP receptor (NPR-B) (rat) (UniProt P16067); assay: cell-based or functional assay
[2] = target: rat ANP receptor (NPR-A) (rat) (UniProt P18910); assay: cell-based or functional assay
Chain of rat ANP receptor (NPR-A) (rat) (P18910 29-1057): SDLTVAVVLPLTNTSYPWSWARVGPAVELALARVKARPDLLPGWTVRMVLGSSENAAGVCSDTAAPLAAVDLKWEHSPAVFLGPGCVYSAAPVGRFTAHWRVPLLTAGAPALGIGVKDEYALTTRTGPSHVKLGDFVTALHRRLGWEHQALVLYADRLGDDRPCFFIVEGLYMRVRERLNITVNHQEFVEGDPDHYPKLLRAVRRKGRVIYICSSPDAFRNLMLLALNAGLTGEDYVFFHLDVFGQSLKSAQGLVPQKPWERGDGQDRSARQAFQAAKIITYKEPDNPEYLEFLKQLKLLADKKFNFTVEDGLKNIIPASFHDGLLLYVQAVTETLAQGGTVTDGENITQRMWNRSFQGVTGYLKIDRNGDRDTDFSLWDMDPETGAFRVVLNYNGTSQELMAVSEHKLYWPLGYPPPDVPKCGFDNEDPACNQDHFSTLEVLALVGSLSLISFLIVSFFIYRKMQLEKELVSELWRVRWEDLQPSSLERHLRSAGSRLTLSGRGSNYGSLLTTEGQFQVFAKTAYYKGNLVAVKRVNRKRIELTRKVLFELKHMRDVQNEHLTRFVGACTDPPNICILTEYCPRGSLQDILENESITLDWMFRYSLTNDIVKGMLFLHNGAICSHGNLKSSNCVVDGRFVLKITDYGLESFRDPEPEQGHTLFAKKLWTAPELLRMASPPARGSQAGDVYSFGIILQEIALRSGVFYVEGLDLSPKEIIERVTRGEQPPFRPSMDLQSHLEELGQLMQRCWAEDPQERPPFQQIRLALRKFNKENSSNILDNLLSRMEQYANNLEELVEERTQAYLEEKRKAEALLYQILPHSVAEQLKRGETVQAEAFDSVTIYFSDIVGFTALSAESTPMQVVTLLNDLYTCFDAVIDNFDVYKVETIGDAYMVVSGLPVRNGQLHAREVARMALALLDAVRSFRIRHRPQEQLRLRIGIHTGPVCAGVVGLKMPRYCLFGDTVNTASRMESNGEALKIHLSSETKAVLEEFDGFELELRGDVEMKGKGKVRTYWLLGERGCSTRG

Chain of rat CNP receptor (NPR-B) (rat) (P16067 17-1047): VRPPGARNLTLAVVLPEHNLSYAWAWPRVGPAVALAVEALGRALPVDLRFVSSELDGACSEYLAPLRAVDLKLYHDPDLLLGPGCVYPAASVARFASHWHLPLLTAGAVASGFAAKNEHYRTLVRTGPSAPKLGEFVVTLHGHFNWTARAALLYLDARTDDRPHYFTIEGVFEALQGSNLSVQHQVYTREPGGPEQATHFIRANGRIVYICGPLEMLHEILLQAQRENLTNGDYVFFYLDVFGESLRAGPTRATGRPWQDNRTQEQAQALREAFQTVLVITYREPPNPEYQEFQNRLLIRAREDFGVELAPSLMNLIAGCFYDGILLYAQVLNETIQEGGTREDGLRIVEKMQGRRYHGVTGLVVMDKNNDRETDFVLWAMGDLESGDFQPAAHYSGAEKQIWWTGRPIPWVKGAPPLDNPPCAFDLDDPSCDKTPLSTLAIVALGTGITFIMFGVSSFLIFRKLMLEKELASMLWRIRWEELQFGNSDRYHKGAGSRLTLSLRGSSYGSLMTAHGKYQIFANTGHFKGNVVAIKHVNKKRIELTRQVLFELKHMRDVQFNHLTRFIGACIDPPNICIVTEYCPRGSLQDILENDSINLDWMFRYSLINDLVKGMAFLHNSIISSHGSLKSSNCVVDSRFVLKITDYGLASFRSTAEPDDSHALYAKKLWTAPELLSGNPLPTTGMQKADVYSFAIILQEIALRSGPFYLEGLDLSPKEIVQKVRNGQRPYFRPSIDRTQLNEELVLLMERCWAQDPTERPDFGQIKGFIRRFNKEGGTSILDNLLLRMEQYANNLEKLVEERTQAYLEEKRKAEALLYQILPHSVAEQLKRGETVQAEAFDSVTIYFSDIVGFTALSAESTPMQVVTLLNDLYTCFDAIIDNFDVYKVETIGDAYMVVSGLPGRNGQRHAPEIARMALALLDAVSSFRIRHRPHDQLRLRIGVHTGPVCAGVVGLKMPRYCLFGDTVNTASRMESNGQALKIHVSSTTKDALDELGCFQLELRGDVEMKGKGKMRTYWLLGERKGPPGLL

| EC50, luminescence of cGMP reporter cells [1] [nM] | Substance | EC50, fluorescence of cGMP reporter cells [2] [nM] |
| --- | --- | --- |
| 0.024 | CNP (Bachem, H-1296) (peptide) | – |
| – | ANP (Bachem, H-2100) (peptide) | 0.22 |
| – | BNP (Bachem, H-5968) (peptide) | 2.9 |

— US20210079056A1
